Consider one molecule from patent US20170342148A1 (UNIVERSITE DE NANTES, published 2017).

Assay [1] deals with T1, recombinant protein IL-34 (Peprotech Ref 200-34, whole protein without signal peptide with His tag on … (UniProt Q6ZMJ4 21-242)).
T1 construct: mature; also called IL-34 protein; recombinant IL-34; not shown: C-terminal His tag
T1 sequence (looked up): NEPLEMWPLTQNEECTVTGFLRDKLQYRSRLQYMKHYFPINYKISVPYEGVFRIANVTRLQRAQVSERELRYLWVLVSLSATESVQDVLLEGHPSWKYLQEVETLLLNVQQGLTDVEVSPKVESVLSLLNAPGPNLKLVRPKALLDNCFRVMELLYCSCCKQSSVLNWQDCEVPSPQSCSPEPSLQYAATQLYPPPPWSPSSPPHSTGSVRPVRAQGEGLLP
Description: SPR (BIAcore T100), antibody captured, IL-34 as analyte. As to the method:
(§1) Theses interaction were performed at 25° C., in HBS-P+ buffer (HEPES 10 mM pH 7.4; NaCl 150 mM; P20 0.05%) by administrating different concentrations of IL-34 obtained by serial dilution of the protein IL-34 (Peprotech Ref 200-34, whole protein without signal peptide with His tag on C-terminal).
(§2) The regeneration is performed by administering 10 mM of Glycine-HCl buffer at pH=1.7 allowing dissociating the antibody IL-34 from immobilized polyclonal antibody.
Background: In SPR one partner is held on a chip, and binding of the other changes the refractive index at the surface.

The target of assay [2] is T1, recombinant protein IL-34 (Peprotech …). Description: SPR (BIAcore T100), antibody captured on immobilised polyclonal anti-mouse antibody, IL-34 as analyte, 25 °C, 1:1 model. As to the method:
as §1, §2
The obtained results are shown by sensograms of FIG. 2.

The target in assay [3] is T2, M-CSF receptor (R&D-Systems ref: 329-MR) (UniProt P07333 20-512).
T2 construct: Bought soluble receptor, immobilised covalently on a CM5 chip; also called CSF-1 receptor; receptor M-CSF-R
Description: SPR (BIAcore T100), antibody injected over immobilised M-CSF-R. Here is the method: The measurement of surface plasmon resonance (SPR) was performed on BIACore T100. The microarrays CM5 (CM-dextran, 1-ethyl-3-(3-[…]) carbodiimide hydrochloride (EDC) and N-Hydroxysuccinimide (NHS) have been purchased by GE Healthcare BIAcore and used according to manufacture instructions.
The ligand, M-CSF receptor (R&D-Systems ref: 329-MR) was immobilized covalently on the CM5 microarray surface. Capture level of […] is comprised between 600 and 800 RU.
Theses interaction were performed at 25° C., in HBS-P+ buffer (HEPES 10 mM pH 7.4; NaCl 150 mM; P20 0.05%).

Broadly, the koff is the first-order rate constant of dissociation. Broadly, the Kd is the concentration at which binding is half-saturated. The kon is the second-order rate constant of association.

T2 sequence (P07333 20-512 limits assumed): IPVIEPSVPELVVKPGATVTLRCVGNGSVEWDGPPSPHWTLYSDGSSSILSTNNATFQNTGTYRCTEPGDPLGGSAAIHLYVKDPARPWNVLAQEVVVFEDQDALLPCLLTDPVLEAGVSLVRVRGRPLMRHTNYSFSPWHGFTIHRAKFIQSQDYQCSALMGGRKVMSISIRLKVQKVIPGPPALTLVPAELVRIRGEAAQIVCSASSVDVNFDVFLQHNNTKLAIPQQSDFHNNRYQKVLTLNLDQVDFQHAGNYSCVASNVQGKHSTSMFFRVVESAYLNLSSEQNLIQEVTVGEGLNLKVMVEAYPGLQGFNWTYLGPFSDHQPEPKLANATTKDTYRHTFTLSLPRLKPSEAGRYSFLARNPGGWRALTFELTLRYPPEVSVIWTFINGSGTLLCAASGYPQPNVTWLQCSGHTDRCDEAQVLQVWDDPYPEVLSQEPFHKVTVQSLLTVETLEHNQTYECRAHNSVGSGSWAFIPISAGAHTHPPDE

B1: murine anti-IL-34 antibody (clone BT34) (antibody, V domains shown)
VH: EVQLQQFGAELVKPGASVKISCKASGYTFTDYNMDWVKQSHGKSLEWIGDINPNYESTTYNQKFKGKATLTVDRSSSTAYMELRSLTSEDTAVYYCLRSGGDYWGQGTTLTVSS
VL: DVLMTQTPLSLPVGLGDQASISCRSSQTIVHSNGKTYLEWYLQKPGQSPKLLIYKVSNRFSGVPDRFSGSGSGTDFTLKISRVEAEDLGVYYCFQGSHVPLTFGAGTKLELK
notes: Murine monoclonal antibody from a hybridoma; No single sentence ties these numbers to BT34; also called anti-IL-34 antibody BT34; anti-IL-34 BT34 clone
For B1, in assay [1], the koff is < 1e-06 s⁻¹. Further, in assay [2], the Kd came to 9.4 pM, the koff was determined as 2.9e-07 s⁻¹ and the association rate constant (kon) is 31000 M⁻¹ s⁻¹. In assay [3], the binding result is given as “no binding (tested: 10 nM)”.
